Test system: T1, CC1=CC(=O)CC(C)(C)[C@@]1(O)/C=C/C(C)=C\C(=O)O[C@@H]1O[C@H](CO)[C@@H](O)[C@H](O)[C@H]1O
T1 construct: recombinant from E. coli, IMAC purified; N-terminal thioredoxin and His6 tags cut off with enterokinase
Experiment: glucose release by peroxidase/glucose oxidase assay, Michaelis-Menten fit
Assay type: biochemical, Oryza sativa
Settings: 50 mM sodium acetate pH 5, 30 °C
From the text: glucose release by peroxidase/glucose oxidase assay, Michaelis-Menten fit on Os4BGlu13

Chain of Os4BGlu13 (Oryza sativa Japonica Group) (chain, as listed by the source): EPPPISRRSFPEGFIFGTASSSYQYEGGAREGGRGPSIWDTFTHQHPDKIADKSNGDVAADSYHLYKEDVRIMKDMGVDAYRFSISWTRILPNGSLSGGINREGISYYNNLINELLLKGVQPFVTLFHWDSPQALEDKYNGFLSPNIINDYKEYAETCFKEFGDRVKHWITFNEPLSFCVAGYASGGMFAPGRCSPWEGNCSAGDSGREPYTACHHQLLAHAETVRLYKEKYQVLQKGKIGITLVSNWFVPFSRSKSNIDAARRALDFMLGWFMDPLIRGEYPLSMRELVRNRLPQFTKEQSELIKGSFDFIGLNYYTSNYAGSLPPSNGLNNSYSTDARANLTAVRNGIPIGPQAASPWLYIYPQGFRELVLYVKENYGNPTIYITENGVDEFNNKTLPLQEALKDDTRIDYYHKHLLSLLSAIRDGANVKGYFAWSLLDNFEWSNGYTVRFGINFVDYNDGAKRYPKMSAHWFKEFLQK

Question: With Os4BGlu13 (Oryza sativa Japonica Group) as the substance, how does the Km read?
Answer: The Km was 1.66 ± 0.09 mM.

Question: What about the kcat of the same substance?
Answer: The kcat was 20.6 ± 0.5 s⁻¹.

Question: What about the kcat/Km of the same substance?
Answer: The kcat/Km was 12400 M⁻¹ s⁻¹.

— article PMC8303963, “Action of Multiple Rice β-Glucosidases on Abscisic Acid Glucose Ester” (International Journal of Molecular Sciences, 2021)
